The term stoichiometry N denotes a count of units in the complex or per binding partner.

B1: serine acetyltransferase (CysE) from E. coli (enzyme)
chain: MSCEELEIVWNNIKAEARTLADCEPMLASFYHATLLKHENLGSALSYMLANKLSSPIMPAIAIREVVEEAYAADPEMIASAACDIQAVRTRDPAVDKYSTPLLYLKGFHALQAYRIGHWLWNQGRRALAIFLQNQVSVTFQVDIHPAAKIGRGIMLDHATGIVVGETAVIENDVSILQSVTLGGTGKSGGDRHPKIREGVMIGAGAKILGNIEVGRGAKIGAGSVVLQPVPPHTTAAGVPARIVGKPDSDKPSMDMDQHFNGINHTFEYGDGI
notes: serine acetyltransferase (CysE), E. coli; Hexamer (dimer of trimers); source: E. coli BL21(DE3) or BL21(DE3) Tuner, pSH21p vector, purified, tag removed as previously described [50]
B2: O-acetylserine sulfhydrylase isozyme A (CysK) from E. coli (enzyme)
chain: KIFEDNSLTIGHTPLVRLNRIGNGRILAKVESRNPSFSVKCRIGANMIWDAEKRGVLKPGVELVEPTSGNTGIALAYVAAARGYKLTLTMPETMSIERRKLLKALGANLVLTEGAKGMKGAIQKAEEIVASNPEKYLLLQQFSNPANPEIHEKTTGPEIWEDTDGQVDVFIAGVGTGGTLTGVSRYIKGTKGKTDLISVAVEPTDSPVIAQALAGEEIKPGPHKIQGIGAGFIPANLDLKLVDKVIGITNEEAISTARRLMEEEGILAGISSGAAVAAALKLQEDESFTNKNIVVILPSSGERYLSTALFADLFTEKELQQ
notes: Carries the pyridoxal 5'-phosphate (PLP) cofactor; Dimer; source: E. coli BL21(DE3) or BL21(DE3) Tuner, pET21P vector, purified as previously described [50]

The target in data set [1] is B2. Briefly: other fluorescence titration; PLP fluorescence emission of CysK at 500 nm after excitation at 412 nm with increasing concentrations of CysE; 20 °C; stoichiometric titration, ratio of CysE to CysK. As to conditions: both partners purified.
Data set [2] concerns the molecule itself. Kind of data set: SAXS; solution scattering at 10 °C; 20 mM sodium phosphate, 85 mM NaCl, 2 mM EDTA, 10 mM 2-MCE, pH 7.5; 0.5-1.5 mg/mL; CysK, CysE and CS (gel filtered and dialysed before) each measured; ab initio DAMMIF and SASREF rigid body models.

In the case of B1, the entries for the “stoichiometry N” value in data set [1] and in data set [2] were 1.7 and 6, respectively.

Turning to B2, in data set [2], the “stoichiometry N” value is 2.

The values above are taken from paper PMC6829319, “Combination of SAXS and Protein Painting Discloses the Three-Dimensional Organization of the Bacterial Cysteine Synthase Complex, a Potential Target for Enhancers of Antibiotic Action” (International Journal of Molecular Sciences, 2019).
